These results are taken from US20100150924A1 (published 2010).

In assay [1] the target is T1, endogenous neurofascin on cultured DRG neurons (rat, UniProt P97685 25-1240).
T1 construct: whole, on cells
T1 sequence (looked up): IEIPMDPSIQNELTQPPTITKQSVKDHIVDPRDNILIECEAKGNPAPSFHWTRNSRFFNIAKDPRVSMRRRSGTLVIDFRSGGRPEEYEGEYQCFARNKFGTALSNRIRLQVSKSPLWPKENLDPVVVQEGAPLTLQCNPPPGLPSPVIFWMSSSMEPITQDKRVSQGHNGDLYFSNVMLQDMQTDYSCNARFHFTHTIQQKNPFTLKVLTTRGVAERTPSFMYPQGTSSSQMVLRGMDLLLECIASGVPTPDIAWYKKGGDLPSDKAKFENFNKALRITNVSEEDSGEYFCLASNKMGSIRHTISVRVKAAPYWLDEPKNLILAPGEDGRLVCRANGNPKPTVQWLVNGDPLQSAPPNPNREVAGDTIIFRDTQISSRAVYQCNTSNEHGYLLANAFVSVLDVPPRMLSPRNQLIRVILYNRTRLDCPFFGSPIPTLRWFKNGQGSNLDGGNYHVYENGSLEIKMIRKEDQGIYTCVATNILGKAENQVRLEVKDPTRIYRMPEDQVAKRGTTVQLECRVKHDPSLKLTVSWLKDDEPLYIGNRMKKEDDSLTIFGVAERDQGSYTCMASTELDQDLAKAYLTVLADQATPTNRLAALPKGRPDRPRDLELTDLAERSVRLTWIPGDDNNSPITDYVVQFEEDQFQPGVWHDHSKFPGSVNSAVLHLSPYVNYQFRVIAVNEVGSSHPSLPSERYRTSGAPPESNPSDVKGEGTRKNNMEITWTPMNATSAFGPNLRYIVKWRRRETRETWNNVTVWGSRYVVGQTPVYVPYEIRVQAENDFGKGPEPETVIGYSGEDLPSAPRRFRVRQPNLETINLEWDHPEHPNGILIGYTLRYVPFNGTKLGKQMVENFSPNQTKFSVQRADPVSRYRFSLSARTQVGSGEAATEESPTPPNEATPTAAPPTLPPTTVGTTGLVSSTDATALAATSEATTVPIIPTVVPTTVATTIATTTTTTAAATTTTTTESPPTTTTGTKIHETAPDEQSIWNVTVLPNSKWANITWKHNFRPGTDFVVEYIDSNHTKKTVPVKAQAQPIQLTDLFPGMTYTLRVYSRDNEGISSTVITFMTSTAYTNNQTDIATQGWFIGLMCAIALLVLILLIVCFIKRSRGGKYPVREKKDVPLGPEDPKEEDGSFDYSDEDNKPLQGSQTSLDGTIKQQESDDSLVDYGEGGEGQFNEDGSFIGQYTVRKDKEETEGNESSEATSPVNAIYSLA
The assay can be described thus: co-clustering on DRG neurons after aggregation of Necl4-Fc. As for the experimental part: (§1) Binding experiments were done by incubating the cells with medium containing different the Fc-fusions proteins pre-incubated with anti human Fc-Cy3 as described previously (Eshed et al., 2005). For clustering experiments, purified DRG-neurons or isolated Schwann cells were incubated with medium containing the respective Fc-fusion protein as described above, washed once and grown for additional 24 (DRG) or 4 hours (Schwann) before fixing. Fc-perturbation experiments were preformed by adding […] purified proteins to the medium of dissociated DRG cultures 2 days before the induction of myelination. Fresh medium containing the Fc-fusion proteins was replaced every second day and the cultures were fixed and stained after 11-12 days of myelination.

Assay [2] deals with T2, endogenous gliomedin on cultured rat Schwann cells (rat, UniProt Q80WL1 1-549).
T2 construct: whole, on cells; also called Gldn
T2 sequence (looked up): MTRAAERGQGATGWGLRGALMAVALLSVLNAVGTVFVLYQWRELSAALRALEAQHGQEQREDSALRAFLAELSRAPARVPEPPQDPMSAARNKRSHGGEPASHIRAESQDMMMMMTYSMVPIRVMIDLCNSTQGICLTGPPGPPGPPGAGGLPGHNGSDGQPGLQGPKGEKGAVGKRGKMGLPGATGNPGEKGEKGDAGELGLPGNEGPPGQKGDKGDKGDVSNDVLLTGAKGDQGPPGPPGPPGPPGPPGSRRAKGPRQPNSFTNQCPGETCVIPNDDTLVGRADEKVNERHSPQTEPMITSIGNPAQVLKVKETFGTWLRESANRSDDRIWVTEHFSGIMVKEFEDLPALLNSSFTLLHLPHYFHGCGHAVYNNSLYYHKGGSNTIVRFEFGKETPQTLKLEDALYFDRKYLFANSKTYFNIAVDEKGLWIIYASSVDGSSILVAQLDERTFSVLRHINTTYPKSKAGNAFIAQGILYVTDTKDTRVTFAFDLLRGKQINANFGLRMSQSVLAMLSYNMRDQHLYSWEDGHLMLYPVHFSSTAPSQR
The assay can be described thus: co-clustering on rat Schwann cells after aggregation of Necl1-Fc with a secondary antibody to human Fc. How it is done:
as §1
To further determine whether Necl4 is the Schwann cell receptor for axonal Necls, we examined the ability of Necl1-Fc and Necl3-Fc to bind Schwann cells that were transfected with Necl4-specific siRNAs to block its expression (FIG. 10B). In contrast to Schwann cells transfected with a control siRNA, down-regulation of Necl4 in Schwann cells by siRNA abolished the binding of Necl1-Fc and Necl3-Fc. […] In a reciprocal set of experiments, reduction of Necl1 expression in DRG neurons by transfection of siRNA abolished the binding of Necl4-Fc (FIG. 11).

B1: Necl4-Fc (extracellular domain of Necl4 fused to the constant region of human IgG1) (Fc fusion)
chain: QEVQTENVTVAEGGVAEITCRLHQYDGSIVVIQNPARQTLFFNGTRALKDERFQLEEFSPRRVRIRLSDARLEDEGGYFCQLYTEDTHHQIATLTVLVAPENPVVEVREQAVEGGEVELSCLVPRSRPAAVLRWYRDRKELKGVSSGQENGKVWSVASTVRFRVDRKDDGGIVICEAQNQALPSGHSKQTQYVLDVQYSPTARIHASQAVVREGDTLVLTCAVTGNPRPNQIRWNRGNESLPERAEAVGETLTLPGLVSADNGTYTCEAANKHGHARALYVLVVYDPGAVVEAQTSVPY
notes: also called soluble Necl-4; soluble Necl4; not shown: constant region (Fc) of human IgG1
Turning to B1, the binding result in assay [1] is “no binding”.

B2: Necl1-Fc (extracellular domain of Necl1 fused to the constant region of human IgG1) (Fc fusion)
chain: NLSQDGYWQEQDLELGTPAPLEEALSSTVWSNPDLLASQDSQPWTSDETVVAGGTVVLKCQVKDHEDSSLQWSNPAQQTLYFGEKRALRDNRIQLVSSTPHELSISISNVALADEGEYTCSIFTMPVRTAKSLVTVLGIPQKPIITGYKSSLREKETATLNCQSSGSKPAAQLAWRKGDQELHGDQTRIQEDPNGKTFTVSSSVSFQVTRDDDGANVVCSVNHESLKGADRSTSQRIEVLYTPTAMIRPEPAHPREGQKLLLHCEGRGNPVPQQYVWVKEGSEPPLKMTQESALIFPFLNKSDSGTYGCTATSNMGSYTAYFTLNVNDPSPVPSSSST
notes: Produced in HEK 293T cells; also called soluble Necl1; Nel1-Fc; not shown: constant region (Fc) of human IgG1
Turning to B2, in assay [2], the binding result is recorded as “no binding”.
